Data set [1] addresses T1, Daudi cell receptor sites (Homo sapiens, UniProt P17181+P48551).
T1 construct: endogenous in cells; host or cells: Daudi (human lymphoblastoid) cells
T1 sequence (P48551 27-515): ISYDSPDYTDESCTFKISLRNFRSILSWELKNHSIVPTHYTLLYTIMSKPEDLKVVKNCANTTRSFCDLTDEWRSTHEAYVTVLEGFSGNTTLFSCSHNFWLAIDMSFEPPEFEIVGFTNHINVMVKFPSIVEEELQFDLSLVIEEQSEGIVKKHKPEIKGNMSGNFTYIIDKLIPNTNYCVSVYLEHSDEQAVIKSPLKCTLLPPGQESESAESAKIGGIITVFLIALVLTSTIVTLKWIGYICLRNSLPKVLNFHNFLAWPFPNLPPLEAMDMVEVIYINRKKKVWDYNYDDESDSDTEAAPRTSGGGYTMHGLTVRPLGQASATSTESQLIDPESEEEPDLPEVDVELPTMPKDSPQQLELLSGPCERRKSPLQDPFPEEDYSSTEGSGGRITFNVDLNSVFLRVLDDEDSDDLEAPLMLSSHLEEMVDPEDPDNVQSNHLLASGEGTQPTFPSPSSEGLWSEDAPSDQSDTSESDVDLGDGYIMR
T1 sequence (P17181 28-557): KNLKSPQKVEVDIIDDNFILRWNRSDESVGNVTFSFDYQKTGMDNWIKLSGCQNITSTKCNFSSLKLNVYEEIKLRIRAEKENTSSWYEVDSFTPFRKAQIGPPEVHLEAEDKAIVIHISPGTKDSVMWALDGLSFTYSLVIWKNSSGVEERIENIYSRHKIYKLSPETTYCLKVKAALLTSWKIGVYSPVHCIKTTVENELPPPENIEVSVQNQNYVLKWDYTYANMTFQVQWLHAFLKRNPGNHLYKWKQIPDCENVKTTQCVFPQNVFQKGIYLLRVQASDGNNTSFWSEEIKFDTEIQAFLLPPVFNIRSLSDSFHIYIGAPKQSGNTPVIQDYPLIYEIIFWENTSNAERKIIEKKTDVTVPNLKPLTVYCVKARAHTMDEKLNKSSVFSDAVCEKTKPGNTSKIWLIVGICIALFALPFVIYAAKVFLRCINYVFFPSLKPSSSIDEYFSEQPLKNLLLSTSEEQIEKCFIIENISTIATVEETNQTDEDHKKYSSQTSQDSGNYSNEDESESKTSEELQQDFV
In words: Competition experiments: displacement of 125I-IFN-alpha-2 from Daudi cells. The format is binding. The conditions noted are these: 100 fold excess of unlabeled IFN. In general terms: Displacement assays read how much labelled ligand stays bound in the presence of the test substance.

Data set [2] has as its system human HEp-2 cells challenged with vesticular stomatitis virus (Indiana Strain). In words: cytopathic effect (CPE) assay of interferon biological (antiviral) activity. The format is cell-based. The conditions noted are these: NIH reference units. How it is done: Ultrapure natural interferon alpha was prepared by incubating human peripheral blood cultures with Sendai virus. The culture supernatant was purified over an anti-interferon alpha column (NK-2 sepharose). […] The biological activity of interferons alpha, beta and gamma were determined by the cytopathic effect (CPE) assay on human HEp-2 cells challenged with vesticular stomatitis virus (Indiana Strain). All titers were calibrated against the NIH reference standards for alpha (#Ga23-902-503) and gamma (Gg 23-901-530) interferons. All titers are expressed as NIH reference units.
Background: Protection from cytopathic effect is a common read-out in antiviral testing.

B1: IFN gamma: Human IFN gamma produced in human peripheral blood cultures containing lymphocytes stimulated with phytohemagglutinin, purified by affinity chromatography (protein, UniProt P01579 24-161, looked up)
Interferon gamma: QDPYVKEAENLKKYFNAGHSDVADNGTLFLGILKNWKEESDRKIMQSQIVSFYFKLFKNFKDDQSIQKSVETIKEDMNVKFFNSNKKKRDDFEKLTNYSVTDLNVQRKAIHELIQVMAELSPAAKTGKRKRSQMLFRG
On to B1, for which the “reduction in the binding of 125I-IFN-alpha2 for Daudi cells” value in data set [1] was “does not compete”. Also, the specific activity in data set [2] is recorded as 2×10^7 U/rag of protein.

The values above are taken from patent US5516515A, “Separation of alpha interferon receptor proteins and antibodies therefor” (priority 1990, dated 1996).
